Reference: patent US6004757
Where no end group is shown, it is not given here.

Experiments:
[1] = target: GST-cyclin B/p33^cdc2
[2] = target: GST-cyclinA/p33^CDK2
[3] = target: chicken pp60^v-src (chicken)
[4] = target: GST-c-abl
Chain of GST-c-abl (P00519 whole entry): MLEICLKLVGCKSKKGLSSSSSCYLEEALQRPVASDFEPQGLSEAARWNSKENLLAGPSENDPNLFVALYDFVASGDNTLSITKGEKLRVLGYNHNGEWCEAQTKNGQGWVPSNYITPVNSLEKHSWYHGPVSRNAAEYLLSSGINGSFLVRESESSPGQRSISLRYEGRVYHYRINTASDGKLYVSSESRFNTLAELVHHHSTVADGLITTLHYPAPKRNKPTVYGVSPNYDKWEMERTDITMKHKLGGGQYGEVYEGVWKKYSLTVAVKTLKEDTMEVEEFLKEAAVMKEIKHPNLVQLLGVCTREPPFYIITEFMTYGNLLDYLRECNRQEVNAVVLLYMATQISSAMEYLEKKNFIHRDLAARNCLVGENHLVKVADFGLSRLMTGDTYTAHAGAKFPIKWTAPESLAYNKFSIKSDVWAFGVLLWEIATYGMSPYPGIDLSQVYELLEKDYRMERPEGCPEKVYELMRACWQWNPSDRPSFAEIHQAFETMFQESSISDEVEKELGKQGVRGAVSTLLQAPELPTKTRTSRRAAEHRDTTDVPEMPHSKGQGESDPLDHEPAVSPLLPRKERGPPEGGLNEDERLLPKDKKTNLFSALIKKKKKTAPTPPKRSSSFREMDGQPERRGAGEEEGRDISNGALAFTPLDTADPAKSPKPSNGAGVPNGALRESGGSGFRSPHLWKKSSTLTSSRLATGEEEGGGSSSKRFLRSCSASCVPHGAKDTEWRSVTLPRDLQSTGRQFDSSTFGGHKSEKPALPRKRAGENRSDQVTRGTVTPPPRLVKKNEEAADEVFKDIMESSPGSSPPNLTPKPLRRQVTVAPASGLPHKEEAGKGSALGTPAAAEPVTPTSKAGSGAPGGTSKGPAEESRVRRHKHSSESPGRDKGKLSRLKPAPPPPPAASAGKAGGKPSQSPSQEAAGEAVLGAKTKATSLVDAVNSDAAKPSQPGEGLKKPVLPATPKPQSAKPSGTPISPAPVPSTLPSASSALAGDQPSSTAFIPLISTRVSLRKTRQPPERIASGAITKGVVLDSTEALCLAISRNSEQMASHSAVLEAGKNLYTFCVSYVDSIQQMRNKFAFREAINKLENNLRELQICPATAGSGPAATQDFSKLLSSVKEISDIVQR

## ARRPMSPKKKA [peptide Ala-Arg-Arg-Pro-Met-Ser-Pro-Lys-Lys-Lys-Ala]
[1]
  Km (µM) of phosphorylation of the peptide by the kinase: 2.4 µM
[2]
  Km (µM) of phosphorylation of the peptide by the kinase: 15 µM

## IEKIGEGTYGVVYKGRHKTT (not fully specified) [synthetic peptide based upon the site of tyrosine phosphorylation on p33^cdc2 (Y15)]
[3]
  Km (µM) of phosphorylation of the peptide by the kinase: 139 µM

## EAIYAAPFAKKK [synthetic abl optimal peptide …]
[4]
  Km of phosphorylation of the peptide by the kinase: 4 µM
